Test results published in the supplement of paper PMC9732359.
± gives the uncertainty stated by the source.

Assay: protein stability index of a GFP-peptide fusion (yeast GPS) (PSI 1-4); higher = more stable; sorted into four equal gates, so the index is relative within each strain
How it was run: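 Mid-log yeast cultures in leucine-free medium, carrying a pooled plasmid library, were sorted into four equal gates by their GFP/Cherry fluorescence ratio. Each plasmid expressed Cherry along with GFP fused upstream of a tiled 17-residue yeast protein peptide. Plasmids recovered from each gate were PCR-amplified and Illumina-sequenced, with reads assigned to strains by barcodes. The protein stability index was obtained by summing each gate's read frequency weighted by its gate number.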

Row | Sequence | protein stability index (doa10∆) | protein stability index (pdr5∆) | protein stability index (san1∆) | protein stability index (ubr1∆)
1 | VELHGKRKLDIGKDTFV [PRP8] | 3.26 ± 0.29 | 2.94 ± 0.13 | 2.47 ± 0.17 | 2.21 ± 0.11
2 | SNQRFKDLQWLEFARIT [SIN4] | 3.17 ± 0.064 | 3.13 ± 0.057 | 2.74 ± 0.068 | 3.15 ± 0.073
3 | PKAISNFLIKLSELSPG [YCS4] | 2.37 ± 0.08 | 2.51 ± 0.085 | 2.08 ± 0.095 | 2.01 ± 0.056
4 | LIEEEVEQDEGQCRTEL [YCS4] | 3.59 ± 0.13 | 3.53 ± 0.15 | – | 3.45 ± 0.12
5 | LQGQMEKIMILLVPLAL [CSN12] | 1.84 ± 0.048 | 1.63 ± 0.04 | 1.3 ± 0.074 | 1.52 ± 0.045
6 | SMRTIMKANPALYVLRE [PRP8] | – | 1.91 ± 0.29 | – | 1.37 ± 0.28
7 | SYPILNESSTFLKLVLS [SIN4] | 1.97 ± 0.035 | 2.27 ± 0.034 | 2.11 ± 0.05 | 2.22 ± 0.031
8 | TNLQRNVDRLYKLNVRS [NUT2] | 3.66 ± 0.19 | 3.62 ± 0.2 | 3.01 ± 0.18 | 3.49 ± 0.073
9 | GPKLRASDLKINELFKK [RPN8] | 1.98 ± 0.12 | 1.42 ± 0.11 | 1.1 ± 0.13 | 1.08 ± 0.13
10 | AYSNTNTNTENENRNTG [SNF11] | 3.1 ± 0.14 | 2.95 ± 0.065 | 2.95 ± 0.071 | 2.95 ± 0.072
11 | ASFFFMVMFMHMAKGLY [COB] | 1.86 ± 0.046 | 1.58 ± 0.038 | 1.67 ± 0.08 | 1.4 ± 0.037
12 | ADTKAPTFTFGSSALAD [YLR335W/NUP2] | 3.25 ± 0.069 | 3.01 ± 0.053 | 3.08 ± 0.048 | 3.11 ± 0.033
13 | ANVVDITNDWEQPCVDI [YJR042W/NUP85] | 3.3 ± 0.071 | 3.41 ± 0.062 | 3.23 ± 0.051 | 3.12 ± 0.06
14 | SVDESARIKDAFITQLE [YJL039C/NUP192] | 3.03 ± 0.12 | 2.61 ± 0.17 | 2.9 ± 0.16 | 2.87 ± 0.11
15 | DDDEVDYSEIQRSRRKF [DSN1] | 2.66 ± 0.1 | 3.66 ± 0.23 | 3.04 ± 0.2 | 2.75 ± 0.16
16 | KQLIMESQEKYMEPFDL [NSL1] | 3.29 ± 0.072 | 3.31 ± 0.054 | 3.32 ± 0.047 | 3.28 ± 0.039
17 | ASEYIETLGLKYLGLKP [FAS1] | 3.27 ± 0.095 | 3.35 ± 0.093 | 3.26 ± 0.074 | 3.06 ± 0.089
18 | PNRLVKELQYDNEQNLE [PRE2] | – | 2.97 ± 0.099 | 2.8 ± 0.094 | 3.08 ± 0.073
19 | SKRGNDKKHFNNKNKRV [RPC53] | 3.17 ± 0.14 | 2.7 ± 0.11 | 3.09 ± 0.14 | 2.05 ± 0.09
20 | MKAVRKVAEVKKLEGTI [RPT4] | 3.15 ± 0.093 | 3.2 ± 0.1 | 3.16 ± 0.073 | 3.56 ± 0.071
21 | MGVPIYGIVAMAATATD [FAS2] | 1.34 ± 0.068 | 1.52 ± 0.052 | 1.54 ± 0.089 | 1.47 ± 0.051
22 | TLLIAIRGSNRDLKPSN [YML103C/NUP188] | 1.92 ± 0.18 | 2.41 ± 0.13 | 2.52 ± 0.098 | 2.8 ± 0.087
23 | KIESSVESQFSAGRLYA [RPS8A] | 2.81 ± 0.11 | 2.85 ± 0.087 | 1.96 ± 0.15 | 2.77 ± 0.13
24 | GNEVSSLYPPPPPYVKF [MED7] | 3.17 ± 0.087 | 3.08 ± 0.065 | 2.74 ± 0.079 | 3.13 ± 0.049
25 | TFENINSLFYLKWSACT [IRR1] | 1.26 ± 0.082 | 1.35 ± 0.082 | 1.27 ± 0.17 | 1.21 ± 0.051
26 | RDKVCKQINEARDEILP [PGD1] | 1.77 ± 0.091 | 1.6 ± 0.14 | 1.5 ± 0.16 | –
27 | DSKGSLYSVKFAPAHLG [YGL100W/SEH1] | 2.66 ± 0.11 | 3.05 ± 0.13 | 2.59 ± 0.1 | 2.81 ± 0.062
